Results from the Immune Epitope Database (IEDB).

Tests used:
HLA-B*07:02 [1] = experiment: IEDB peptide-MHC binding, purified MHC/competitive/fluorescence; filed as Kd, often an IC50 or EC50 that approximates it; ≥ and ≤ were set here for values at or beyond the usual limits of such assays
HLA-C*07:02 = experiment: IEDB peptide-MHC binding, purified MHC/direct/fluorescence; filed as Kd, often an IC50 or EC50 that approximates it; ≥ and ≤ were set here for values at or beyond the usual limits of such assays
HLA-C*04:01 = experiment: as above
HLA-A*02:01 [2] = experiment: as above
HLA-A*69:01 = experiment: as above
HLA-C*12:03 = experiment: as above; conditions: source organism: Coxiella burnetii RSA 331
HLA-A*02:50 = experiment: IEDB peptide-MHC binding, purified MHC/competitive/fluorescence; filed as Kd, often an IC50 or EC50 that approximates it; ≥ and ≤ were set here for values at or beyond the usual limits of such assays
HLA-B*58:01 = experiment: IEDB peptide-MHC binding, purified MHC/direct/fluorescence; filed as Kd, often an IC50 or EC50 that approximates it; ≥ and ≤ were set here for values at or beyond the usual limits of such assays
HLA-B*08:01 = experiment: as above
HLA-A*26:01 = experiment: as above
HLA-B*40:01 = experiment: as above
HLA-B*44:02 = experiment: as above
HLA-A*11:01 = experiment: as above
HLA-A*31:01 = experiment: as above
HLA-B*15:01 [3] = experiment: as above
HLA-A*01:01 [4] = experiment: as above
HLA-B*27:05 = experiment: as above
HLA-A*03:01 = experiment: as above
HLA-A*24:03 = experiment: as above
HLA-B*07:02 [5] = experiment: as above
HLA-B*48:01 [6] = experiment: IEDB peptide-MHC binding, purified MHC/competitive/fluorescence; filed as Kd, often an IC50 or EC50 that approximates it; ≥ and ≤ were set here for values at or beyond the usual limits of such assays; conditions: source organism: Giardia lamblia ATCC 50803
HLA-B*39:01 = experiment: IEDB peptide-MHC binding, purified MHC/direct/fluorescence; filed as Kd, often an IC50 or EC50 that approximates it; ≥ and ≤ were set here for values at or beyond the usual limits of such assays; conditions: source organism: Marburg virus - Musoke, Kenya, 1980
HLA-B*18:01 = experiment: as above
HLA-B*46:01 = experiment: as above
HLA-B*08:02 = experiment: as above
HLA-B*15:09 = experiment: as above; conditions: source organism: Ravn virus - Ravn, Kenya, 1987
HLA-C*05:01 = experiment: as above
HLA-B*57:01 = experiment: as above
HLA-B*15:17 [7] = experiment: as above; conditions: source organism: Marburg virus - Musoke, Kenya, 1980
HLA-A*68:02 = experiment: as above
HLA-B*48:01 [8] = experiment: as above; conditions: source organism: Marburg virus - Musoke, Kenya, 1980
HLA-B*38:01 = experiment: as above; conditions: source organism: Ravn virus - Ravn, Kenya, 1987
HLA-A*02:01 [9] = experiment: IEDB peptide-MHC binding, purified MHC/competitive/fluorescence; filed as Kd, often an IC50 or EC50 that approximates it; ≥ and ≤ were set here for values at or beyond the usual limits of such assays; conditions: source organism: Orthomarburgvirus marburgense
HLA-A*26:02 = experiment: as above
HLA-A*30:01 = experiment: as above; conditions: source organism: Orthomarburgvirus marburgense
HLA-A*02:06 = experiment: as above; conditions: source organism: Vaccinia virus Tian Tan
HLA-B*15:01 [10] = experiment: as above; conditions: source organism: Vaccinia virus Tian Tan
HLA-A*01:01 [11] = experiment: as above; conditions: source organism: Vaccinia virus Tian Tan
HLA-B*15:17 [12] = experiment: as above; conditions: source organism: Vaccinia virus Tian Tan
HLA-A*24:02 = experiment: IEDB peptide-MHC binding, purified MHC/direct/fluorescence; filed as Kd, often an IC50 or EC50 that approximates it; ≥ and ≤ were set here for values at or beyond the usual limits of such assays; conditions: source organism: Escherichia coli O157:H7
[13] = source organism: Tokudaia muenninki
[14] = source organism: Coxiella burnetii
[15] = source organism: Salmonella enterica subsp. enterica serovar Typhimurium
[16] = source organism: Marburg virus - Musoke, Kenya, 1980
[17] = source organism: Orthomarburgvirus marburgense
[18] = source organism: Camelpox virus CMS
[19] = source organism: Vaccinia virus Tian Tan
[20] = source organism: Escherichia coli O157:H7
[21] = source organism: Mycobacterium tuberculosis C

With YPRYPGVRC as the sequence, how does the Kd (HLA-B*07:02 [1]; source organism: Influenza A virus (A/nt/60/1968(H3N2))) read?
Its Kd is 0.0103 µM.

YYNAFQWAI was tested. Which Kd (HLA-C*07:02; [13]) did it give?
The Kd was 0.03 µM.

What about the Kd (HLA-C*04:01; [13]) of the same sequence?
Its Kd is no less than 20 µM.

Which Kd (HLA-A*02:01 [2]; [14]) does the source give for YTYPIAHTA here?
Its Kd is 0.852 µM.

What about the Kd (HLA-A*69:01; [14]) of the same sequence?
Its Kd is 0.0025 µM.

And the Kd (HLA-C*12:03)?
Its Kd is 0.004 µM.

What about the Kd (HLA-A*02:50; source organism: Coxiella burnetii RSA 331) of the same sequence?
Its Kd is 0.0011 µM.

How did the Kd (HLA-A*02:01 [2]; [15]) turn out when FMIDWILDA was run?
The Kd was 0.003 µM.

And the Kd (HLA-B*58:01; [15])?
Its Kd is no less than 20 µM.

And the Kd (HLA-B*08:01; [15])?
Its Kd is no less than 20 µM.

And the Kd (HLA-A*26:01; [15])?
The Kd was no less than 20 µM.

What about the Kd (HLA-B*40:01; [15]) of the same sequence?
Its Kd is no less than 20 µM.

And the Kd (HLA-B*44:02; [15])?
The Kd was no less than 20 µM.

What about the Kd (HLA-A*11:01; [15]) of the same sequence?
Its Kd is no less than 20 µM.

What about the Kd (HLA-A*31:01; [15]) of the same sequence?
The Kd was no less than 20 µM.

What about the Kd (HLA-B*15:01 [3]; [15]) of the same sequence?
The Kd was 0.264 µM.

And the Kd (HLA-A*01:01 [4]; [15])?
The Kd was no less than 20 µM.

And the Kd (HLA-B*27:05; [15])?
Its Kd is no less than 20 µM.

And the Kd (HLA-A*03:01; [15])?
The Kd was no less than 20 µM.

What about the Kd (HLA-A*69:01; [15]) of the same sequence?
Its Kd is 0.056 µM.

What about the Kd (HLA-A*24:03; [15]) of the same sequence?
Its Kd is no less than 20 µM.

What about the Kd (HLA-B*07:02 [5]; [15]) of the same sequence?
Its Kd is no less than 20 µM.

What about the Kd (HLA-A*02:50; source organism: Aeromonas salmonicida subsp. salmonicida) of the same sequence?
Its Kd is no more than 0.0001 µM.

How did the Kd (HLA-B*48:01 [6]) turn out when GMYGHPFAL was run?
The Kd was 0.0283 µM.

With IFDDLQGSL as the sequence, how does the Kd (HLA-B*39:01) read?
Its Kd is no less than 20 µM.

What about the Kd (HLA-B*58:01; [16]) of the same sequence?
Its Kd is no less than 20 µM.

And the Kd (HLA-B*18:01; [16])?
The Kd was no less than 20 µM.

What about the Kd (HLA-B*46:01; [16]) of the same sequence?
The Kd was no less than 20 µM.

And the Kd (HLA-B*40:01; [16])?
The Kd was no less than 20 µM.

What about the Kd (HLA-B*08:02; source organism: Ravn virus - Ravn, Kenya, 1987) of the same sequence?
Its Kd is no less than 20 µM.

And the Kd (HLA-B*15:09)?
The Kd was no less than 20 µM.

What about the Kd (HLA-B*15:01 [3]; [16]) of the same sequence?
Its Kd is no less than 20 µM.

And the Kd (HLA-A*01:01 [4]; [16])?
The Kd was no less than 20 µM.

And the Kd (HLA-B*27:05; [16])?
Its Kd is no less than 20 µM.

And the Kd (HLA-A*69:01; [16])?
Its Kd is no less than 20 µM.

What about the Kd (HLA-C*05:01; [17]) of the same sequence?
Its Kd is 3.84 µM.

And the Kd (HLA-B*57:01; [16])?
The Kd was no less than 20 µM.

What about the Kd (HLA-B*15:17 [7]) of the same sequence?
The Kd was no less than 20 µM.

What about the Kd (HLA-A*68:02; [16]) of the same sequence?
The Kd was no less than 20 µM.

And the Kd (HLA-B*07:02 [5]; [16])?
The Kd was no less than 20 µM.

And the Kd (HLA-B*48:01 [8])?
The Kd was no less than 20 µM.

What about the Kd (HLA-B*38:01) of the same sequence?
The Kd was no less than 20 µM.

What about the Kd (HLA-A*02:01 [9]) of the same sequence?
Its Kd is no less than 20 µM.

What about the Kd (HLA-A*26:02; [17]) of the same sequence?
Its Kd is no less than 20 µM.

What about the Kd (HLA-A*30:01) of the same sequence?
Its Kd is no less than 20 µM.

Which Kd (HLA-A*02:01 [2]; [18]) does the source give for YYKDDISYF here?
The Kd was no less than 20 µM.

And the Kd (HLA-B*58:01; [18])?
The Kd was no less than 20 µM.

And the Kd (HLA-B*18:01; [18])?
Its Kd is no less than 20 µM.

What about the Kd (HLA-B*08:01; source organism: Variola virus) of the same sequence?
The Kd was no less than 20 µM.

What about the Kd (HLA-A*26:01; source organism: Variola virus) of the same sequence?
Its Kd is 0.579 µM.

And the Kd (HLA-B*08:02; source organism: Variola virus)?
The Kd was no less than 20 µM.

What about the Kd (HLA-A*11:01; [18]) of the same sequence?
The Kd was no less than 20 µM.

What about the Kd (HLA-A*31:01; [18]) of the same sequence?
Its Kd is no less than 20 µM.

What about the Kd (HLA-C*07:02; [19]) of the same sequence?
Its Kd is 0.029 µM.

And the Kd (HLA-A*69:01; [18])?
The Kd was no less than 20 µM.

What about the Kd (HLA-A*24:03; [18]) of the same sequence?
The Kd was 0.0037 µM.

And the Kd (HLA-B*57:01; [18])?
The Kd was no less than 20 µM.

What about the Kd (HLA-A*68:02; [18]) of the same sequence?
Its Kd is no less than 20 µM.

And the Kd (HLA-A*02:06)?
Its Kd is no less than 20 µM.

What about the Kd (HLA-A*26:02; [19]) of the same sequence?
The Kd was 0.0347 µM.

What about the Kd (HLA-B*15:01 [10]) of the same sequence?
Its Kd is no less than 20 µM.

And the Kd (HLA-A*01:01 [11])?
Its Kd is 1.39 µM.

And the Kd (HLA-B*15:17 [12])?
Its Kd is no less than 20 µM.

And the Kd (HLA-B*07:02 [1]; [19])?
Its Kd is no less than 20 µM.

For LLDPLYFEV, which Kd (HLA-A*02:01 [2]; [20]) is on record?
The Kd was 0.0042 µM.

And the Kd (HLA-B*58:01; [20])?
The Kd was no less than 20 µM.

And the Kd (HLA-A*24:02)?
The Kd was no less than 20 µM.

What about the Kd (HLA-B*46:01; [20]) of the same sequence?
The Kd was no less than 20 µM.

And the Kd (HLA-B*40:01; [20])?
Its Kd is no less than 20 µM.

And the Kd (HLA-B*44:02; [20])?
The Kd was no less than 20 µM.

And the Kd (HLA-A*11:01; [20])?
The Kd was no less than 20 µM.

And the Kd (HLA-A*31:01; [20])?
Its Kd is no less than 20 µM.

And the Kd (HLA-B*15:01 [3]; [20])?
The Kd was no less than 20 µM.

What about the Kd (HLA-B*27:05; [20]) of the same sequence?
The Kd was no less than 20 µM.

And the Kd (HLA-A*03:01; [20])?
The Kd was no less than 20 µM.

What about the Kd (HLA-B*07:02 [5]; [20]) of the same sequence?
The Kd was no less than 20 µM.

And the Kd (HLA-A*02:50; source organism: Escherichia coli 536)?
Its Kd is no more than 0.0001 µM.

What does the source list for VYAPAGVEL?
Kd (HLA-C*05:01; [21]): ≥ 20 µM; Kd (HLA-A*24:03; source organism: Mycobacterium tuberculosis): 0.0021 µM; Kd (HLA-C*04:01; [21]): ≥ 20 µM
